Reference: the PETadex activity labels (doi:10.1021/acscatal.9b00568)
Changes are numbered by the printed parent chain.

B1: unnamed (protein)
chain: MNFPRASRLMQAAVLGGLMAVSAAATAQTNPYARGPNPTAASLEASAGPFTVRSFTVSRPSGYGAGTVYYPTNAGGTVGAIAIVPGYTARQSSIKWWGPRLASHGFVVITIDTNSTLDQPESRSSQQMAALRQVASLNGTSSSPIYGKVDTARMGVMGWSMGGGGSLISAANNPSLKAAAPQAPWHSSTNFSSVTVPTLIFACENDSIAPVNSSALPIYDSMSRNAKQFLEINGGSHSCANSGNSNQALIGKKGVAWMKRFMDNDTRYSTFACENPNSTAVSDFRTANCS
B2: unnamed (protein)
chain: B1 chain with E121S, P181A, H186D, A280R
B3: unnamed (protein)
chain: B1 chain with E121S, H186D, A280R
B4: unnamed (protein)
chain: B1 chain with E121D, H186D, A280R
B5: unnamed (protein)
chain: B1 chain with E121S, H186F, A280R
B6: unnamed (protein)
chain: B1 chain with H186D, A280R
B7: unnamed (protein)
chain: B1 chain with E121S, H186L, A280R
B8: unnamed (protein)
chain: B1 chain with E121D, A280R
B9: unnamed (protein)
chain: B1 chain with E121S, H186V, A280R
B10: unnamed (protein)
chain: B1 chain with E121S, P181G, H186D, A280R
B11: unnamed (protein)
chain: B1 chain with E121S, P181S, H186D, A280R

substrate: PET; experiment: Proxy for plastic degradation [HPLC-UV]; details: pH 9; 30 °C; 0 h; part of the chain shown

Point of comparison: B3, “Proxy for plastic degradation” value 0 µM. Against it:
- B1 — the same, 0 µM

same assay, conditions: pH 9; 30 °C; 1 h; part of the chain shown

Point of comparison: B3, “Proxy for plastic degradation” value 5 µM. Against it:
- B1 — 5-fold higher, 25 µM

same assay, conditions: pH 9; 30 °C; 2 h; part of the chain shown

Point of comparison: B3, “Proxy for plastic degradation” value 7 µM. Against it:
- B1 — 6-fold higher, 42 µM

same assay, conditions: pH 9; 30 °C; 3 h; part of the chain shown

Point of comparison: B1, “Proxy for plastic degradation” value 50 µM. Against it:
- B3 — 5-fold lower, 10 µM

same assay, conditions: pH 9; 30 °C; 4 h; part of the chain shown

Point of comparison: B3, “Proxy for plastic degradation” value 11 µM. Against it:
- B1 — 5-fold higher, 55 µM

same assay, conditions: pH 9; 30 °C; 5 h; part of the chain shown

Point of comparison: B1, “Proxy for plastic degradation” value 68 µM. Against it:
- B3 — 6.2-fold lower, 11 µM

same assay, conditions: pH 9; 30 °C; 6 h; part of the chain shown

Point of comparison: B3, “Proxy for plastic degradation” value 12 µM. Against it:
- B1 — 5.8-fold higher, 70 µM

same assay, conditions: pH 9; 30 °C; 7 h; part of the chain shown

Point of comparison: B3, “Proxy for plastic degradation” value 14 µM. Against it:
- B1 — 5.7-fold higher, 80 µM

same assay, conditions: pH 9; 30 °C; 8 h; part of the chain shown

Point of comparison: B3, “Proxy for plastic degradation” value 15 µM. Against it:
- B1 — 5-fold higher, 75 µM

same assay, conditions: pH 9; 30 °C; 9 h; part of the chain shown

Point of comparison: B1, “Proxy for plastic degradation” value 90 µM. Against it:
- B3 — 6.9-fold lower, 13 µM

same assay, conditions: pH 9; 30 °C; 10 h; part of the chain shown

Point of comparison: B3, “Proxy for plastic degradation” value 15 µM. Against it:
- B1 — 6.1-fold higher, 92 µM

same assay, conditions: pH 9; 40 °C; 0 h; part of the chain shown

Point of comparison: B3, “Proxy for plastic degradation” value 0 µM. Against it:
- B1 — the same, 0 µM

same assay, conditions: pH 9; 40 °C; 1 h; part of the chain shown

Point of comparison: B1, “Proxy for plastic degradation” value 70 µM. Against it:
- B3 — 6.4-fold lower, 11 µM

same assay, conditions: pH 9; 40 °C; 2 h; part of the chain shown

Point of comparison: B1, “Proxy for plastic degradation” value 82 µM. Against it:
- B3 — 8.2-fold lower, 10 µM

same assay, conditions: pH 9; 40 °C; 3 h; part of the chain shown

Point of comparison: B3, “Proxy for plastic degradation” value 10 µM. Against it:
- B1 — 10-fold higher, 105 µM

same assay, conditions: pH 9; 40 °C; 4 h; part of the chain shown

Point of comparison: B3, “Proxy for plastic degradation” value 10 µM. Against it:
- B1 — 10-fold higher, 100 µM

same assay, conditions: pH 9; 40 °C; 5 h; part of the chain shown

Point of comparison: B3, “Proxy for plastic degradation” value 7 µM. Against it:
- B1 — 15-fold higher, 102 µM

same assay, conditions: pH 9; 40 °C; 6 h; part of the chain shown

Point of comparison: B3, “Proxy for plastic degradation” value 8 µM. Against it:
- B1 — 13-fold higher, 104 µM

same assay, conditions: pH 9; 40 °C; 7 h; part of the chain shown

Point of comparison: B3, “Proxy for plastic degradation” value 9 µM. Against it:
- B1 — 11-fold higher, 100 µM

same assay, conditions: pH 9; 40 °C; 8 h; part of the chain shown

Point of comparison: B1, “Proxy for plastic degradation” value 104 µM. Against it:
- B3 — 13-fold lower, 8 µM

same assay, conditions: pH 9; 40 °C; 9 h; part of the chain shown

Point of comparison: B3, “Proxy for plastic degradation” value 7 µM. Against it:
- B1 — 16-fold higher, 115 µM

same assay, conditions: pH 9; 40 °C; 10 h; part of the chain shown

Point of comparison: B3, “Proxy for plastic degradation” value 8 µM. Against it:
- B1 — 14-fold higher, 108 µM

same assay, conditions: pH 9; 30 °C; 24 h

Point of comparison: B4, “Proxy for plastic degradation” value 5.3 µM. Against it:
- B2 — within 1.5-fold, 4.2 µM
- B5 — within 1.5-fold, 6 µM
- B6 — 2-fold higher, 10.8 µM
- B7 — 2.5-fold lower, 2.1 µM
- B8 — 2.9-fold higher, 15.2 µM
- B9 — 2.2-fold lower, 2.4 µM
- B10 — 2.3-fold lower, 2.3 µM
- B11 — 1.5-fold lower, 3.5 µM

same assay, conditions: pH 9; 30 °C; 72 h

Point of comparison: B9, “Proxy for plastic degradation” value 4 µM. Against it:
- B2 — 1.9-fold higher, 7.8 µM
- B4 — 6.1-fold higher, 24.3 µM
- B5 — 2.9-fold higher, 11.4 µM
- B6 — 4.8-fold higher, 19 µM
- B7 — within 1.5-fold, 3.1 µM
- B8 — 5.8-fold higher, 23.2 µM
- B10 — within 1.5-fold, 3.3 µM
- B11 — within 1.5-fold, 4.9 µM

same assay, conditions: pH 9; 40 °C; 24 h

Point of comparison: B5, “Proxy for plastic degradation” value 7.5 µM. Against it:
- B2 — the same, 7.5 µM
- B4 — 2.9-fold lower, 2.6 µM
- B6 — 2.1-fold lower, 3.6 µM
- B7 — 3.8-fold lower, 2 µM
- B8 — 3.9-fold higher, 28.9 µM
- B9 — 3.9-fold lower, 1.9 µM
- B10 — 6.2-fold lower, 1.2 µM
- B11 — 3.9-fold lower, 1.9 µM

same assay, conditions: pH 9; 40 °C; 72 h

Point of comparison: B7, “Proxy for plastic degradation” value 7.1 µM. Against it:
- B2 — within 1.5-fold, 7.6 µM
- B4 — within 1.5-fold, 7.2 µM
- B5 — 2-fold higher, 14.4 µM
- B6 — within 1.5-fold, 5.2 µM
- B8 — 5.4-fold higher, 38.4 µM
- B9 — the same, 7.1 µM
- B10 — 4.2-fold lower, 1.7 µM
- B11 — 3.2-fold lower, 2.2 µM
